Tests used:
SHP2-C SH2 = assay: SH2 binding enrichment of the phosphorylated peptide, bacterial display (enrichment ratio); higher = better substrate or ligand; peptides without Tyr show the background
c-Src SH2 = assay: as above
Grb2 SH2 = Grb2 SH2 (UniProt P62993); assay: as above
c-Src = assay: phosphorylation enrichment, bacterial display (enrichment ratio); higher = better substrate or ligand; peptides without Tyr show the background
Jak2 = Jak2 (UniProt O60674); assay: as above
Fes = Fes (UniProt P07332); assay: as above
Fes, sequence (P07332 whole entry, looked up): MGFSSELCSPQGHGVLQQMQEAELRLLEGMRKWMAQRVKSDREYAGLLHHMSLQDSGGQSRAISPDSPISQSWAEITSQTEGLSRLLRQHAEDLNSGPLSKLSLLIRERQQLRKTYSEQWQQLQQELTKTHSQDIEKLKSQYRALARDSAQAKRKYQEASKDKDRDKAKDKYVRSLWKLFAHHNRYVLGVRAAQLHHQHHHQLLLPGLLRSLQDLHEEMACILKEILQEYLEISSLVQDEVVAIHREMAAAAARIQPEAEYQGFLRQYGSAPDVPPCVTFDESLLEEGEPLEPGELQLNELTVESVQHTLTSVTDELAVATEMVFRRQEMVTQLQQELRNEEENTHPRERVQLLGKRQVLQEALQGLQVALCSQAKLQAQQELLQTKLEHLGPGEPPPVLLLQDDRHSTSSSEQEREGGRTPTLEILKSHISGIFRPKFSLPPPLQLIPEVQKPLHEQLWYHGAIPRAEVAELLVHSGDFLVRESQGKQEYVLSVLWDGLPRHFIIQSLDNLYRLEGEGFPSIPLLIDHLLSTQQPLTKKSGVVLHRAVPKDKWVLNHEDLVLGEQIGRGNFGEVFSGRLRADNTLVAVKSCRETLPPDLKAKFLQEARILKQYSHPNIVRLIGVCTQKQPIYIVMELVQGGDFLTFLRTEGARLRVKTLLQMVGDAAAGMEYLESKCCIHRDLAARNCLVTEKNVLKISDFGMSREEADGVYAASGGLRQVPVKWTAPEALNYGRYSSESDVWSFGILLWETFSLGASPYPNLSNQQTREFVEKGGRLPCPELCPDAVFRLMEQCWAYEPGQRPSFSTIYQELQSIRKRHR

MERTK = MERTK (UniProt Q12866); assay: as above
MERTK, sequence (Q12866 whole entry, looked up): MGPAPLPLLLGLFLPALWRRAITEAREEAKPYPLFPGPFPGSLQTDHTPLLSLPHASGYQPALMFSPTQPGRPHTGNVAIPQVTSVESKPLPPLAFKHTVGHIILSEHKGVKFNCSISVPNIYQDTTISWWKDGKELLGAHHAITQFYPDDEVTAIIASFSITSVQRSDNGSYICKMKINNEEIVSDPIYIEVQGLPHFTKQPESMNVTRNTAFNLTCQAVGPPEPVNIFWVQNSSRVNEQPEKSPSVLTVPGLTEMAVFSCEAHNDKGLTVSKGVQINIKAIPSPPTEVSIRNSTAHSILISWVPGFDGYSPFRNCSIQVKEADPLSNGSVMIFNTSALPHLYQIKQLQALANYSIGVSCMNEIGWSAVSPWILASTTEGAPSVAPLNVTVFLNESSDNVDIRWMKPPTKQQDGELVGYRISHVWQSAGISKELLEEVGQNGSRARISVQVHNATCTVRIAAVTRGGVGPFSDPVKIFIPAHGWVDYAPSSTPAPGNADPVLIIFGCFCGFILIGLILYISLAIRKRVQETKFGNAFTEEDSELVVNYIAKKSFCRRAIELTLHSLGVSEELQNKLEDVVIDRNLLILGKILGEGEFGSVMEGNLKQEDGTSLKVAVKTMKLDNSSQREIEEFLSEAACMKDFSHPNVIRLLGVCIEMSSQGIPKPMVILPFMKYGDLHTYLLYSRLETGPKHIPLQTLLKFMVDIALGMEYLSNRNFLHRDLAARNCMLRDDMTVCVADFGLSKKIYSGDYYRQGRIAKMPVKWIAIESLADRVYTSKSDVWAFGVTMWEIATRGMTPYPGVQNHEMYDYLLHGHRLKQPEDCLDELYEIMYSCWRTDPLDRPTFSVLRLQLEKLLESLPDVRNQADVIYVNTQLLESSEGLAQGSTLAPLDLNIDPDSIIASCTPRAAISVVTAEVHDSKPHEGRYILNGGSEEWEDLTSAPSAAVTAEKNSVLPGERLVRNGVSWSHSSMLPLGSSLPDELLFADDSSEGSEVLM

c-Abl (mouse) = assay: as above
Fyn = Fyn (UniProt P06241); assay: as above
Fyn, sequence (P06241 whole entry, looked up): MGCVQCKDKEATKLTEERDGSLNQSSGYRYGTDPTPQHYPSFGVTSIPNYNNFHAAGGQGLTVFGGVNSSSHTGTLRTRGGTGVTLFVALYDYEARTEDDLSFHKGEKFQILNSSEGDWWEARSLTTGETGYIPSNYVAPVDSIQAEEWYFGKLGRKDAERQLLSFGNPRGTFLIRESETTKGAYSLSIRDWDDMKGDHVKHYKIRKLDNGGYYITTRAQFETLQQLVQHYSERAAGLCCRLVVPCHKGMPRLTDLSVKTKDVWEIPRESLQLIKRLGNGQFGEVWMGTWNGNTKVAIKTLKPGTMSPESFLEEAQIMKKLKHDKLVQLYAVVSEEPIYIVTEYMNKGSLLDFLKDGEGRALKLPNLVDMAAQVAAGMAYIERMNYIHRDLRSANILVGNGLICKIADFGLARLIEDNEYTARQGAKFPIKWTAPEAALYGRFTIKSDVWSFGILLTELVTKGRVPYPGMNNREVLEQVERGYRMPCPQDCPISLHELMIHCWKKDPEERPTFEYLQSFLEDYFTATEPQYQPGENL

FGFR3 = FGFR3 (UniProt P22607); assay: as above
FGFR1 = FGFR1 (UniProt P11362); assay: as above
AncSZ = assay: as above
Hck = Hck (UniProt P08631); assay: as above
Hck, sequence (P08631 whole entry, looked up): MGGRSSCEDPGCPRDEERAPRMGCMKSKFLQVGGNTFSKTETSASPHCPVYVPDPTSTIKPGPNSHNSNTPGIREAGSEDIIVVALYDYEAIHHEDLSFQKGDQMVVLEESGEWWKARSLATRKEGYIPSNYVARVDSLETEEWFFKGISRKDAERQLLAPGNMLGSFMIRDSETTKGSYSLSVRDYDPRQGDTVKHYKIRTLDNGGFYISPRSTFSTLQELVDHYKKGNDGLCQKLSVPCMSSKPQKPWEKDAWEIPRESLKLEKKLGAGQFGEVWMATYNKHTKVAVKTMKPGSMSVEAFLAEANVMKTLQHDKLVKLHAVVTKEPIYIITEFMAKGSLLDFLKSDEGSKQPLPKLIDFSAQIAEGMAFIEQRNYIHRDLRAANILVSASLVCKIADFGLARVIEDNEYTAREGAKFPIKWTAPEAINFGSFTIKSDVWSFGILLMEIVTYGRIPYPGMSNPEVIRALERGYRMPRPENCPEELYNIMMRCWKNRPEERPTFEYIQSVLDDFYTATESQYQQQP

Fer (mouse) = assay: as above
EPHB1 = EPHB1 (UniProt P54762); assay: as above
EPHB1, sequence (P54762 whole entry, looked up): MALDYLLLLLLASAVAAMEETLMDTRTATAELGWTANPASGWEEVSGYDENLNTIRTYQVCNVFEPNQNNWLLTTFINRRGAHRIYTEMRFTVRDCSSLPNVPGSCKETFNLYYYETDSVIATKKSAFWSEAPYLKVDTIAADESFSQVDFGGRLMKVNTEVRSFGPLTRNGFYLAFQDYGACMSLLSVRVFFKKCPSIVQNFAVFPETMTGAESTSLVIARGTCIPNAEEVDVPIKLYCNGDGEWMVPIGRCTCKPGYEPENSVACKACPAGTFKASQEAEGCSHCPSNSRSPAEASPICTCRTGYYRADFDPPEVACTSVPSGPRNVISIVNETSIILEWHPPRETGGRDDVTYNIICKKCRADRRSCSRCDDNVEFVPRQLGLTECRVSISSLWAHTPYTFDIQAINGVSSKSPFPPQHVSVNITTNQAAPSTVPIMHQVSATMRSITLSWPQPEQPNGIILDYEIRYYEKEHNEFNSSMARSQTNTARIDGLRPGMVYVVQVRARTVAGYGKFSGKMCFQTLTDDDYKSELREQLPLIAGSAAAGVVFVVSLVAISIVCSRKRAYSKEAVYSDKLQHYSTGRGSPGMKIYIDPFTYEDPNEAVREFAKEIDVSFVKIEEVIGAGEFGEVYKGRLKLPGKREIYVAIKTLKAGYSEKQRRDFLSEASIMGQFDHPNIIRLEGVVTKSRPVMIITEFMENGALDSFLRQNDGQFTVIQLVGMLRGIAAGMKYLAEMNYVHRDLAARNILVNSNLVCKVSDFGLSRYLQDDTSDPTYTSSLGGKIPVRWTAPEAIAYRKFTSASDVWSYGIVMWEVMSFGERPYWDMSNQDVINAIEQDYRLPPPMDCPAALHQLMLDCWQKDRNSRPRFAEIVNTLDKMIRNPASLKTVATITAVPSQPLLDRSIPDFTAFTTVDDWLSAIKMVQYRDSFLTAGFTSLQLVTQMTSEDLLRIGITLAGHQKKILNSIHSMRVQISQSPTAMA

EPHB2 = EPHB2 (UniProt P29323); assay: as above
EPHB2, sequence (P29323 whole entry, looked up, the tested form may be a part): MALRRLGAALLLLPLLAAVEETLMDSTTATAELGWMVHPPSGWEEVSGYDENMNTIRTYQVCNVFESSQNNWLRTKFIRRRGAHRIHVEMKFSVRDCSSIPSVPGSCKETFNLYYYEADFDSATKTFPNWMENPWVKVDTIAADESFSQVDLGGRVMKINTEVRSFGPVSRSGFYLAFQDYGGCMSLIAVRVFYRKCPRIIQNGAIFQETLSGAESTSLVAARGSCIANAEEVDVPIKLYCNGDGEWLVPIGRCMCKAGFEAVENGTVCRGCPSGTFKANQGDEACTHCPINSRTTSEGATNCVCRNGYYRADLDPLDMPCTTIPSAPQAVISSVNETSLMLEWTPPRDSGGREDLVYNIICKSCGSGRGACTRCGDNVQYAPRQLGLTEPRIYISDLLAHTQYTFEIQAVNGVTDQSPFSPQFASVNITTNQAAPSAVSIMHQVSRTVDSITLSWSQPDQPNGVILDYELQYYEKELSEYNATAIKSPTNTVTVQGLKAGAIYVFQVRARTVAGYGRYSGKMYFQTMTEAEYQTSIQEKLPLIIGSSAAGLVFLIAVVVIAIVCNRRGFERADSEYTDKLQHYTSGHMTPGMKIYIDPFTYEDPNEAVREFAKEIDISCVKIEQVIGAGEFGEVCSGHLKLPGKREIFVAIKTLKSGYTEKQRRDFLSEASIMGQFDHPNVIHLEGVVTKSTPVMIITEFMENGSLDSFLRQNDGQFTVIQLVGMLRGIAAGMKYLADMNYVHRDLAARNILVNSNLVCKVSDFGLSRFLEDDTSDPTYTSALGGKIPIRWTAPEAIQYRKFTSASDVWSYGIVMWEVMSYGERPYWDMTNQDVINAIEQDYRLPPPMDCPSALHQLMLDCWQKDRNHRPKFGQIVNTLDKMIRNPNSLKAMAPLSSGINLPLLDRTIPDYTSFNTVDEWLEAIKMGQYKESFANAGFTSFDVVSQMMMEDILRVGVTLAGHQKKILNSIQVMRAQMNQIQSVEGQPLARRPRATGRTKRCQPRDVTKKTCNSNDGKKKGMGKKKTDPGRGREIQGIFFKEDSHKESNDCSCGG
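Wherever SH2 binding enrichment of the phosphorylated peptide, bacterial display is given: peptide library displayed on the E. coli surface as eCPX fusions, selected cells deep-sequenced, score is each peptide's frequency after selection divided by its frequency in the input.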
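Wherever phosphorylation enrichment, bacterial display is given: 11-residue human phosphosite peptides and single-mutation variants displayed on the E. coli surface, counted by deep sequencing, each peptide's frequency after selection divided by its frequency in the unselected input library; frequency after pTyr selection over input frequency; kinase dosed for 20-30% of maximal phosphorylation in three min.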

Sequence	SH2 binding enrichment (SHP2-C SH2)	SH2 binding enrichment (c-Src SH2)	SH2 binding enrichment (Grb2 SH2)	phosphorylation enrichment (c-Src)	phosphorylation enrichment (Jak2)	phosphorylation enrichment (Fes)	phosphorylation enrichment (MERTK)	phosphorylation enrichment (c-Abl (mouse))	phosphorylation enrichment (Fyn)	phosphorylation enrichment (FGFR3)	phosphorylation enrichment (FGFR1)	phosphorylation enrichment (AncSZ)	phosphorylation enrichment (Hck)	phosphorylation enrichment (Fer (mouse))	phosphorylation enrichment (EPHB1)	phosphorylation enrichment (EPHB2)
GKMPQYLESMQ [CYB5R3_Y130_S128P]	0.932	0.571	0.906	0.459	0.73	0.701	0.473	0.614	0.537	0.554	0.517	0.741	0.466	0.304	0.492	0.412
PTTKTYFPHFD [HBA1_Y43]	0.951	0.396	0.825	0.576	0.572	0.929	0.553	0.59	0.545	0.625	0.595	0.66	0.352	0.479	0.374	0.396
DEEFEYMNRRR [ERBB3_Y1199_YF]	0.799	0.521	0.842	0.564	1.01	1.18	0.597	0.688	0.643	0.612	0.591	1.3	0.497	0.474	0.481	0.66
SRDTRYLVLAV [AMH_Y195]	2.34	0.811	1.13	0.514	0.909	1.1	0.487	0.739	0.492	0.683	0.543	0.93	0.476	0.552	0.636	0.559

Now from value to sequence, other results behind:

SH2 binding enrichment (SHP2-C SH2)	SH2 binding enrichment (c-Src SH2)	SH2 binding enrichment (Grb2 SH2)	Sequence	phosphorylation enrichment (c-Src)	phosphorylation enrichment (Jak2)	phosphorylation enrichment (Fes)	phosphorylation enrichment (MERTK)	phosphorylation enrichment (c-Abl (mouse))	phosphorylation enrichment (Fyn)	phosphorylation enrichment (FGFR3)	phosphorylation enrichment (FGFR1)	phosphorylation enrichment (AncSZ)	phosphorylation enrichment (Hck)	phosphorylation enrichment (Fer (mouse))	phosphorylation enrichment (EPHB1)	phosphorylation enrichment (EPHB2)
0.906	0.769	1.08	PRSRSYFSTSI [REPS2_Y462_S463F]	0.677	0.635	0.791	0.496	0.452	0.468	0.574	0.457	0.623	0.691	0.436	0.478	0.797
0.592	0.625	0.672	FGRTFYNQAIM [MCCC2_Y196]	0.463	0.96	1.04	0.431	0.635	0.407	0.535	0.377	1.08	0.462	0.411	0.476	0.529
0.703	0.597	0.871	QMRLKYSQSDL [SMC1A_Y714]	0.481	0.611	0.863	0.296	0.632	0.251	0.453	0.437	0.704	0.369	0.365	0.335	0.476
0.682	0.505	0.902	DLQDEYDFKRK [STAT1_Y170_C174R]	0.476	0.916	1.16	0.355	0.588	0.465	0.643	0.472	0.992	0.472	0.463	0.495	0.54

Source: the supplement of paper PMC10065799, “High-throughput profiling of sequence recognition by tyrosine kinases and SH2 domains using bacterial peptide display” (eLife, 2023)
